For 6 molecules, binding result and IC50 results are on record in patent US20170044545, “APTAMER FOR BONDING TO AUTOTAXIN AND INHIBITING BIOLOGICAL ACTIVITY OF AUTOTAXIN, AND USE FOR SAME” (RIBOMIC INC., published 2017).

Data set [1] concerns the target T1, Autotaxin (ENPP2, NPP2) (Homo sapiens, UniProt Q13822 Q13822:36-863). Kind of data set: SPR; not more than 10% of SEQ 4. A general note: Surface plasmon resonance follows binding to a sensor surface in real time, without labels.
Data set [2] concerns the target T1, Autotaxin (ENPP2, NPP2). Nature of the data set: inhibition.
Data set [3] concerns the target T1, Autotaxin (ENPP2, NPP2). Nature of the data set: inhibition; listing sequence lacks U7 printed in text.
The target of data set [4] is T1, Autotaxin (ENPP2, NPP2). Nature of the data set: inhibition; pNP-TMP 1 mM, autotaxin 0.3 nM, 37 C 24 h, solution A.
The target in data set [5] is T1, Autotaxin (ENPP2, NPP2). Nature of the data set: inhibition; text prints 3' CCUGGA, listing ccucgga.
The next data set concerns the target FGF2 (UniProt P09038 P09038:135-288). Kind of data set: SPR; FGF2 immobilized about 1100 RU; specificity control. Conditions: tags: PeproTech. The procedure:
Whether the nucleic acids of SEQ ID NOs: 8 and 9 bind to autotaxin was evaluated by the surface plasmon resonance method. For the measurement, Biacore T100 manufactured by GE Healthcare was used, and the measurement was performed by the method shown below. About 2700 RU autotaxin was immobilized on a sensorchip surface of CM4 chip by using an amino coupling kit. The flow rate was 20 μL/min, and nucleic acids (20 μL) prepared to 0.3 μM were injected as an analyte. As a running buffer, solution A was used. In Table 1, nucleic acids showing a binding amount of not more than 10% of that of the aptamer of SEQ ID NO: 4 were considered not binding and marked with (−), and ones not less than that were considered binding and marked with (+).
Whether the aptamer shown in SEQ ID NO: 16(23) has a binding activity to FGF2 (PeproTech) was confirmed by the surface plasmon resonance method. Autotaxin was immobilized on a flow cell 2 and FGF2 was immobilized on a flow cell 3 (about 1100 RU), and the aptamer was injected. The rest was performed similarly to Example 2.

FGF2, sequence (P09038 135-288, one chain of several): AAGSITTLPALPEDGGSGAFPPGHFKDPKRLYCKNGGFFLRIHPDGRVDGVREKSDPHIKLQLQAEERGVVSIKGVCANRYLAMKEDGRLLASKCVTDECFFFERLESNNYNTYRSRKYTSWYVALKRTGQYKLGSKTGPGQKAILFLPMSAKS

As for GGGAAACAGGUUUUGCUCC (ssRNA, 2'-F pyrimidines, 2'-OH purines) [SEQ 22], the binding result with Autotaxin (ENPP2, NPP2) [1] is on record as “no binding”. Also, in the data set with Autotaxin (ENPP2, NPP2) [2], the half-inhibitory concentration (IC50) – broadly, the concentration needed to halve the response being measured – was determined as 950 nM.

The molecule UCUGAGUGAAACAGGUUUUGCUGCUCGGA (ssRNA, 2'-F pyrimidines, 2'-OH purines [2'-F at all C and U; A and G 2'-OH]) [SEQ 48] gave a 50% inhibitory concentration (IC50) with Autotaxin (ENPP2, NPP2) [3] of 44 nM.

B1: SEQ 4 aptamer (ssRNA)
RNA: GGGACCGCACUCUAAACGCUCUGAGGGAAACAGGUUUUGCUCCUCGGAGCGUGGACGAAGUGAGACGUAUCCG
modifications: 2'-F pyrimidines, 2'-OH purines
In the case of B1, the IC50 with Autotaxin (ENPP2, NPP2) [4] was 7 nM.

In the data set with Autotaxin (ENPP2, NPP2) [5], UCUGAGGGAAACAGGUUCUGCUCCUCGGA (ssRNA, 2'-F pyrimidines, 2'-OH purines) [SEQ 46] gave a half-inhibitory concentration (IC50) of 50 nM.

B2: SEQ 9 clone (ssRNA)
RNA: GGGUGGCAACAGGACAUGGAACGCGCCCCAACUGCUUGAAACUGGUUUUGCUGAGCAGUGAUGUGAGAUGCGUCUUCGUAC
modifications: 2'-F pyrimidines, 2'-OH purines
For the molecule B2, the binding result in the data set with Autotaxin (ENPP2, NPP2) [1] is reported as “no binding”.

As for UCUGAGGGAAACAGGUUUUGCUCCUCGGA (mixed, as 16(22) with 5' 40 kDa PEG (GL2-400GS2)-ssH linker instead of 5' idT) [SEQ 16(23)], in the data set with FGF2, the binding result is “no binding”. Further, the 50% inhibitory concentration (IC50) with Autotaxin (ENPP2, NPP2) [2] came out at 1.1 nM.
